Laboratory results taken from the supplement of paper PMC10567573.

B1: PCMTD2 (parent)
chain: FFIRTSDSFDKFDFCEPSFVTGNC
B2: RPAIN (parent)
chain: ISEYEKSLQFDEKCLSIMLAEWEA

Variants of: B1
Assay: protein stability index of a GFP-peptide fusion (GPS, HEK-293T) (PSI 1-6); higher = more stable
Details: c terminus: a fixed tail appended
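Note: lentivirally expressed fusions sorted by FACS into six bins by GFP to DsRed ratio, PSI derived from sequencing read proportions per bin multiplied by bin number.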

Variant | protein stability index
DFIRTSDSFDKFDFCEPSFVTGNC | 2.41
GFIRTSDSFDKFDFCEPSFVTGNC | 2.28
TFIRTSDSFDKFDFCEPSFVTGNC | 1.8
FFVRTSDSFDKFDFCEPSFVTGNC | 2.18
FFERTSDSFDKFDFCEPSFVTGNC | 2.04
FFPRTSDSFDKFDFCEPSFVTGNC | 1.9
FFFRTSDSFDKFDFCEPSFVTGNC | 2.17
FFWRTSDSFDKFDFCEPSFVTGNC | 2.9
FFLRTSDSFDKFDFCEPSFVTGNC | 1.73
FFYRTSDSFDKFDFCEPSFVTGNC | 1.81
FFTRTSDSFDKFDFCEPSFVTGNC | 2.1
FFQRTSDSFDKFDFCEPSFVTGNC | 1.96
FFRRTSDSFDKFDFCEPSFVTGNC | 2.45
FFARTSDSFDKFDFCEPSFVTGNC | 1.55
FFNRTSDSFDKFDFCEPSFVTGNC | 1.98
FFGRTSDSFDKFDFCEPSFVTGNC | 2.18
FFDRTSDSFDKFDFCEPSFVTGNC | 2.56
FFCRTSDSFDKFDFCEPSFVTGNC | 1.81
FFSRTSDSFDKFDFCEPSFVTGNC | 1.8
FFHRTSDSFDKFDFCEPSFVTGNC | 2
FFKRTSDSFDKFDFCEPSFVTGNC | 2.07

Variant | protein stability index
FFMRTSDSFDKFDFCEPSFVTGNC | 1.98
FLIRTSDSFDKFDFCEPSFVTGNC | 3.25
FGIRTSDSFDKFDFCEPSFVTGNC | 2.41
FWIRTSDSFDKFDFCEPSFVTGNC | 3.73
FEIRTSDSFDKFDFCEPSFVTGNC | 2.15
FTIRTSDSFDKFDFCEPSFVTGNC | 1.76
FYIRTSDSFDKFDFCEPSFVTGNC | 2.58
FQIRTSDSFDKFDFCEPSFVTGNC | 2.06
FSIRTSDSFDKFDFCEPSFVTGNC | 2.01
FMIRTSDSFDKFDFCEPSFVTGNC | 1.81
FDIRTSDSFDKFDFCEPSFVTGNC | 2.71
FHIRTSDSFDKFDFCEPSFVTGNC | 1.89
FKIRTSDSFDKFDFCEPSFVTGNC | 2.06
FIIRTSDSFDKFDFCEPSFVTGNC | 2.55
FPIRTSDSFDKFDFCEPSFVTGNC | 2.13
FAIRTSDSFDKFDFCEPSFVTGNC | 2.1
FCIRTSDSFDKFDFCEPSFVTGNC | 1.92
FRIRTSDSFDKFDFCEPSFVTGNC | 1.65
FNIRTSDSFDKFDFCEPSFVTGNC | 2.35
FVIRTSDSFDKFDFCEPSFVTGNC | 3.17

Variants of: B2
Assay: as above
Details: c terminus: a fixed tail appended

Variant | protein stability index
ISEYEKSLQFDEKCLSIMLAEWER | 1.73
ISEYEKSLQFDEKCLSIMLAEWEV | 1.91
ISEYEKSLQFDEKCLSIMLAEWES | 1.72
ISEYEKSLQFDEKCLSIMLAEWEW | 1.59
ISEYEKSLQFDEKCLSIMLAEWEY | 1.25
ISEYEKSLQFDEKCLSIMLAEWET | 2
